{
  "source": "the nanobody polyreactivity screen of Harvey et al. (2022)",
  "data": [
    {"assay": "yeast display, Sf9 membrane polyspecificity reagent, FACS + sequencing; frameworks hold sequencing errors", "how_it_was_run": "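Nanobodies came from a synthetic yeast display library in Saccharomyces cerevisiae BJ5465, induced with galactose for 36–48 hours and stained for 1 hour at 4 °C with 10% biotinylated, detergent-solubilized Sf9 membrane reagent. Cells were enriched on streptavidin microbeads and then FACS-sorted, with low and high (top ~1%) gates set on anti-HA fluorescence for expression and streptavidin fluorescence for reagent binding. Each polyreactivity label reflects the gate a clone came from. Genes were amplified by colony PCR, sequenced by MiSeq 2 × 250 and filtered by CDR length.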", "values": [
      {"sequence": "QVQLVESGGGLVQAGGSLRLSSAASGRIFLLNAMGWYRQAPGKERELVADISFNGGSTYYADSVKGRFTISRDNAKNSVYLQMNSLKPEDTAVYYCAVGSFGVSAYSYYYWGQGTQVTVSS", "polyreactivity (PSR sort gate)": "low polyreactivity"},
      {"sequence": "QVELVESGGGLVQAGGSLRLSCAASGSTFDYNAMGWYRQAPGKERELVAAISRTANANYADSVKGRFTISRDNAKNTVYLQMNSLKPEDTSVYYCAADFRASKVHVRFCYWGQGTQVTVSS", "polyreactivity (PSR sort gate)": "low polyreactivity"},
      {"sequence": "QVQIVESGGGLVQAGGSLRLSCAASGSTFYEYAMGWYRQAPGKERELVATITSGGRTYYADSVKGRFTISRDNAKNTVYLQMNSLKPEDTAVYYCAAAGKGRFHFRSTMDYWGQGSQVTVSS", "polyreactivity (PSR sort gate)": "high polyreactivity"},
      {"sequence": "QVQLVESGGGLVQARGSLRLSCAASGFIFRDNAMGWYRQAPGKERELVAAISKSGGRTYYADSVKGRFTISRDNAKNTVYLQMNSLKPEDTAVYYCAKASRYWSLYYWGQGTQVTVSS", "polyreactivity (PSR sort gate)": "high polyreactivity"},
      {"sequence": "QVQLVEKRGGLVQAGGILRLSCAASGCILVGYAMGWSRQAPGKERELVAAINYSGGSTNYADSVKGRFTISLDNAKNTVYLQMISLKPEDTAVYYCAARSTARYGYWGQGTQVTVSS", "polyreactivity (PSR sort gate)": "low polyreactivity"},
      {"sequence": "KVQLVESGGGLVQAGGSLRLSCAASGSIFTHNAMGWYRQAPGKERELVAAISSGGSTNYADSVKGRFTISRDNAKNTVYLQMNSLKPEDTAVYYCAKSIDGWYWRRRRYDYWGQGTQVTVSS", "polyreactivity (PSR sort gate)": "low polyreactivity"},
      {"sequence": "QVQLVESGGGLVQAGGSLRLSCAASGITFGDNVKGWYRQAPGKERELVAAISRIGDDTYYADSVKGRFTISRDNAKNTVYLQMNSLKPEDTAVYYCAAEYIYYIWSSYIDWDYYWVQGTQVTVSS", "polyreactivity (PSR sort gate)": "low polyreactivity"},
      {"sequence": "QVQLVESGGGLVQAGGSLRLSCAASGSTFVLNAMGWYRQAPGKERELVAAINLDSGNTNYADSVKGRFTISRDNAKNTVYLQMNSLKPEDTAVYYCNTDVKFGGTAYDYWGQGTQVTVSS", "polyreactivity (PSR sort gate)": "low polyreactivity"},
      {"sequence": "QVQLVESGGGLVQAGGSLRLSCAASGSIFLLYAMGWYRQAPGKERELVARISWSGDNTRYADSVKGRFTISRDNAKNTVFLQMNSLKPEDTAVYYCNAYYFYGQWKGYDYWGQGTQVTVSS", "polyreactivity (PSR sort gate)": "low polyreactivity"},
      {"sequence": "QVQLVESGGGLVQAGGSLRLSCAASGSISFINAMGWYRQAPGKERELVAAISGSGGSTYYADSVKGRFTISRDNAKNTVYLQMNSLKPEDTAVYYCAADYRIHWYIAYGYWGQGTQVTVSS", "polyreactivity (PSR sort gate)": "low polyreactivity"},
      {"sequence": "QVQLVESGGGLVQAGGSLRLTCAASGSIFYVNAMGWYRQAPGKERESVAGITGSGSRTYYADSVKGRFTISRDNAKNTVYLQMNSLKPEDTAVYYCARLTRTSRGLYDYWGQGTQVTVSS", "polyreactivity (PSR sort gate)": "high polyreactivity"},
      {"sequence": "QVQLVESGGGLVQAGGSLRLSSAASGRIFSRYTMGWYRQAPGKERELVAAISWIGTRTYYADSVKGRFTISRDNAKNTVYLQMNSLKPEDTAVYYCNAVFGGYYGYVSNYKFDYWGHGTQVTVSS", "polyreactivity (PSR sort gate)": "high polyreactivity"},
      {"sequence": "QVQLVESGGGLVQAGGSLRLSCAASGSTFRRYAMGWYRQAPGKERELVAAITSTDVNTYYADSVKGRFTISRDNAKNTVYLQMNSLKPEDTAVYYCAAVYLGYYGVSDMEYWGQGTQVTVSS", "polyreactivity (PSR sort gate)": "high polyreactivity"},
      {"sequence": "QVQLVESGGGLVQAGGSLRLSCAASGRTFRYNAMGWYRQAPGKERELVAAINWNGGSTYYADSVKGRFTISRDNAKNTVYLQMNSLKPEDTAVYYCAAYPGHGVTYWDRYYYWGQGTQVTVSS", "polyreactivity (PSR sort gate)": "high polyreactivity"},
      {"sequence": "QVQLVESGGGLVQAGGSLRLSCAASGSIFSTYTMGWYRQAPGTERELVAAITRSGGSTYNADSVKGRFTISRDNAKNTVYLQMNSLKPEDTAVYYCAARWKFPSSFYYWGQGTQVTVSS", "polyreactivity (PSR sort gate)": "high polyreactivity"},
      {"sequence": "QVQLVESGGGLDQAGGSLRLSSAASGFTFRRNAMGWYRQAPGTERELVASITQRGGSTYYADSVKGRFTISRDNAKNTVYLQMNSLKPEATAVYYCAAGPTSRRWYDYWGQGTEVTVSS", "polyreactivity (PSR sort gate)": "high polyreactivity"},
      {"sequence": "QVQLVESGGGLVQAGGSLRLSCAASGIIFSIYAMGWSRQAPGKERELVAAISGRGGRTYYADSVKGRFTMSRDNAKNTVYLQMNSLKPEDTAVYFCAAGAHAYAHYSWFYFRMHYWGQGTQVTVSS", "polyreactivity (PSR sort gate)": "low polyreactivity"},
      {"sequence": "QVQLVESGGGLVQAGGSLRLSCAASGSTSPIYAMGWYRQAPGKERELVAAINGVGSTNYADSVKGRFTISRDNAKNTVYLQMNSLKPEDTAVYYCNTRYSPGYQGTEVDYWGQGTQVTVSS", "polyreactivity (PSR sort gate)": "low polyreactivity"},
      {"sequence": "QVQLVESGGGLVQAGGSLRLSCAASGSTFLRNAMGWYRQAPGKERELVAAISLGSGSTYYADSVKGRFTISRDNAKNTVYLQMNSLKPEDTAVYYCAADVSRWLDYGYDYWGQVTQVTVSS", "polyreactivity (PSR sort gate)": "low polyreactivity"},
      {"sequence": "QVQLVESGGGLVQAGGSLRLSCAASGLTFKSYAMGWYRQAPGKERELVAVISSSGGRTYYADSVKGRFTISRDNAKNTVYLQMNSLKPEDTAVYYCAADGSYGKWGGHAMYYWGQGTQVTVSS", "polyreactivity (PSR sort gate)": "high polyreactivity"},
      {"sequence": "QVQLVESGGGLVQAGGSLRLSCAASGSIVRSYAMGWYRQAPGKERELVASITDGTITNYADSVKGRFTISRDNAKNTVYLQMISLKPDDTAVYYCAAGTLAHAYVVRPIEMDYWGQGTQVTVSS", "polyreactivity (PSR sort gate)": "low polyreactivity"},
      {"sequence": "QVQLVESGGGLVQAGGSLRLSCAASGRTFAPYAMGWSRQAPGKEREFVAGITWSSSSTYADSVKGRFTISRDNAKNTVYLQMNSLKPEDTAVYYCAARHAKGGNRHYYWGQGTQVTVSS", "polyreactivity (PSR sort gate)": "high polyreactivity"},
      {"sequence": "QVQLVESGGGLVQAGGSLRLSCAASGFIFGYYAMGWYRQAPGKERELVAAISTRGSTYYADSVKGRFTISRDNAKYTVYLQMNSLKPEDTAVYYCNAGWGYRRDYWGQGTQVTVSS", "polyreactivity (PSR sort gate)": "high polyreactivity"},
      {"sequence": "QVQLVESGGGLVQAGASLRLSCAASGRTFLRYAMGWYRQAPGKERELVAAISSRGGSTYYADSVKGRFTISRDNAKNTVYLQMNSLIPEDTAVYYCAARGCRSQVPVRVFRYDFWGQGTQVTVSS", "polyreactivity (PSR sort gate)": "high polyreactivity"},
      {"sequence": "QVQLVESGGGLVQAGGSLRLSCAASGRTLYGYAMGWYRQAPGKERELVARITGRDGSTDYADSVKGRFTISRDNAKNTVYLQMNSLKPEDTAVYYCNARVRFHWYRSDYWGQGTQVTVSS", "polyreactivity (PSR sort gate)": "high polyreactivity"},
      {"sequence": "QVQLVESGGGLVQAGGSLRLSCAASGRTFTFYAMGWYRQAPGKERELVAAITWSGGSTYYADSVKGRFTISRDNAKNTVYLQRNSLKPEDTAVYYCAKLDVISDDLDYWGQGTQVTVSS", "polyreactivity (PSR sort gate)": "low polyreactivity"},
      {"sequence": "QVQLVESGGGLVQAGGSLLLSCAASGLTFERYVMVWYRQAPGKERELVSSISRSGSTYYADSVKGRFTISRDNAKNTVYLQMNSLKPEDTAVYYCNADRFWFHWVYSRYHYDYWGQGTQVTVSS", "polyreactivity (PSR sort gate)": "high polyreactivity"},
      {"sequence": "QVQLVESGGGLVQAGGSLRLSCAASGFTFGFNDMGWYRQAPGKERELVAAITIGGTTNYADSVKGRFTISRDNAKNTVYLQMNSLKPEDTAVYSCAADTRVVYDEDYWGQGTQVTVSS", "polyreactivity (PSR sort gate)": "low polyreactivity"},
      {"sequence": "QVQLVESGGGLVQAGGSLRLSCAASGSTFWIYAMGWYRPAPGKERELVAAITLRSGSTYYADSVKGRFTISRDNAKNTVYLQMNSLKPEDTAVYYCAKDYYGTYYAQYNYWGQGTQVTVSS", "polyreactivity (PSR sort gate)": "low polyreactivity"},
      {"sequence": "QVQLVESGGGLVQAGGSLRLSCAASGGTLRRYAMGWYRQAPGKERELVAGITSGGSTDYADSVKGRFTISRDNAKNTVYLQMNSLKPEDTAVYYCAALVYRPTYGYIFDYWGQGTQVTVSS", "polyreactivity (PSR sort gate)": "high polyreactivity"},
      {"sequence": "QVQLVESGGGLVQAGGSLRLSCAASGIIFQVYAMGWYRQAPGKERELVAAISDDGSTNYADSVQGRFTISRDNAKNTGYLQMNSLKPEDTAVYYCAKDSWGRLYYRYDYWGQGTQVTVSS", "polyreactivity (PSR sort gate)": "low polyreactivity"},
      {"sequence": "QVQLVESGGGLVQAGGSLRLSCAASGRIFSTYVMGWYRQAPGKERELVAAITRGGSTNYADSVKGRFTISRDNAKNTVYLQMNSLKPEDTAVYYCNAQRRGTYYWGQATQVTVSS", "polyreactivity (PSR sort gate)": "high polyreactivity"},
      {"sequence": "QVQLVESGGGLVQAGGSLRLSCAASGRIFYWNVMGWYRQAPGKERELVAAISSSGASTSYADSVKGRFTISRDNAKNTVYLQMNSLKPEDTAVYHCAARTRRNYRQYNYWGQGTQVTVSS", "polyreactivity (PSR sort gate)": "high polyreactivity"},
      {"sequence": "QVQLVESGGGLVQAGGSLRLSCAASGSIFRINAMGWYRQAPGKERELVAAISWSGGSTYYADSVKGRFTISRDNAKNTVYVQMNSLKPEDTAVYYCAAVVSKSSFDYWGQGTQVTVSS", "polyreactivity (PSR sort gate)": "low polyreactivity"},
      {"sequence": "QVQLVESGGGLVQAGGSLSLSFAASGRTFARYAMGWYRQAPGKEREFVAGINWSGGGTYYADSVKGRFTISRDNAKNTVYLQMNSLKTEDTAVYYCAAVPTNRYGYWGQGTQVTVSS", "polyreactivity (PSR sort gate)": "high polyreactivity"},
      {"sequence": "QVQLVESGVGLVQAGGSLRLICAASGMTFDNYAMGWYRQAPGKERELVAAITSGDGTYYADSVKGRFTISRDNAKNTVYLQMNSLKPEDTAVFYCAVQGSRTENYDWYYYWGQGTQVTVSS", "polyreactivity (PSR sort gate)": "low polyreactivity"},
      {"sequence": "QVQLVESGGGLVQAGGSLRLSCAASGSIFDVNAMGWYIQAPGKERELVAAISQRGTRTYYADSVKGRFTISRDNAKNTVYLQMNRLKPEDTAVYYCNRGGWRQYDSWGQGTQVTVSS", "polyreactivity (PSR sort gate)": "high polyreactivity"},
      {"sequence": "QVQLVESGGGLVKAGGSLRLSCAASGSIFGRYAMGWYRQAPGKERELVAAISSGGRTYADSVKGRFTISRDNAKNTVYLQMNSLNPEDTAVYYCNARYDGRNSVGPYLGYNYWGQGTQVTVSS", "polyreactivity (PSR sort gate)": "high polyreactivity"},
      {"sequence": "QDQLGESGGGLVQAGGSLRLSCAASGSTFRYYAMGWYRQAPGKERELLAAITSSGGSTYYADSVKGRFTISRDNAMNTVYLQMNSLNPEDTAVYYCAVAVKNWVKLNYWGQGTQVTVSS", "polyreactivity (PSR sort gate)": "high polyreactivity"},
      {"sequence": "QVQLVESGGGLVQAGGSLRLSCAASGRIFGWYAMGWYRQAPGKEREFVAAITVTGGSTYYADSVKGRFTISRDNAKNTVYLQMNSLKPEDTALYYCAADRWYTRTGFDYWGQVTQVTVSS", "polyreactivity (PSR sort gate)": "low polyreactivity"},
      {"sequence": "QVQLVESGGGLVQAGGSLRLSCAASGNTFHTNAMGWYRQAPGKERELVAAITGGGSTYYADSVKGRFTISRDNAKNTVYLQMNSLKPEDTAVYYCNTDVPYGLDVSDTIDYYYWGQGTQVTVSS", "polyreactivity (PSR sort gate)": "low polyreactivity"},
      {"sequence": "QVQLVESGGGLVQAGGSLRLSCAASGFTFVQYAMGWYRQAPGKERELVATISKSGGITYYADSVKGRFTISRDNAKNTVFLQMNSLKPEVTAVYYCAAAWYYSSRGFHATWGHDYWGQGTQVTVSS", "polyreactivity (PSR sort gate)": "low polyreactivity"},
      {"sequence": "QVQLVESGGGLVQAGGSLRLSCAASGFTFYRYTMGWYRQAPGKERELVAAISSGDSTYYADSVKGRFTISRDNAKNTVYLQMNSLKPEDTAVYYCAARQYSRGAIVYYWGQGTQVTVSS", "polyreactivity (PSR sort gate)": "high polyreactivity"}
    ]}
  ]
}
